Results on 1 substance are retold here after patent US20080292620A1.

For this assay, the target named is T1, human prolactin receptor (PRLR), full length on cells (human) (UniProt P16471).
T1 sequence: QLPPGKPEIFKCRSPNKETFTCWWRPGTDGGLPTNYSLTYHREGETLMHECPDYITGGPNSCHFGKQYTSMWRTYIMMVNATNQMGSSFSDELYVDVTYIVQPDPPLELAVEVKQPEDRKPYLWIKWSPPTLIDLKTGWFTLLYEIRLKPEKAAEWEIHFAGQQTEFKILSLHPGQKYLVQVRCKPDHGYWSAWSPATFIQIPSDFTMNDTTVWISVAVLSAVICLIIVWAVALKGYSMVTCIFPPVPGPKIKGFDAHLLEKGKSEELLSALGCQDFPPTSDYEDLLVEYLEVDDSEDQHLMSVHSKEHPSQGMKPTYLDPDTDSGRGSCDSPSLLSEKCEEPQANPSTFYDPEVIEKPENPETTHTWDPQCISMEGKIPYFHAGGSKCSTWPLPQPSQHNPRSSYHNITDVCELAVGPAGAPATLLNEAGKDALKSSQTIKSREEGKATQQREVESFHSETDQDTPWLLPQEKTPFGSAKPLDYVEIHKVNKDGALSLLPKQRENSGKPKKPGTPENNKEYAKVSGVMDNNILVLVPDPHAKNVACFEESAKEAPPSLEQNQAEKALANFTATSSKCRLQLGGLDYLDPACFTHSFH
The experiment in a line: flow cytometry on CHO-K1 cells expressing human PRLR (clone 1G5).

“mAb 1167, control murine anti-PRLR monoclonal antibody (R&D Systems, catalog #MAB1167)” registered an MFI of 33.8.
